How the values were obtained:
[1] = system: GST-2E11 recombinant protein
PP2A phosphatase = assay: In vitro dephosphorylation of phosphorylated GST-2E11 with HTB-14 whole cell extracts; format: biochemical, Human; settings: HTB-14 cell extracts (500 μg) plus 400 μM okadaic acid, 30 min, room temperature
Method: In vitro phosphorylated GST-2E11 fusion protein was incubated at room temperature for 30 min with 500 μg of whole cell extracts of Human glioblastoma, astrocytoma cell line (ATCC number: HTB-14) with or without 400 μM of the PP2A phosphatase inhibitor okadaic acid (Sigma). HTB-14 whole cell extracts were prepared as follow: cells were washed three times with ice-cold TBS buffer (10 mM Tris-HCl [pH 8.0], 120 mM NaCl) and lysed at 4° C. for 30 min in EBC buffer (50 mM Tris-HCl [pH 8.0], 120 mM NaCl, 0.5% Nonidet P-40). Then the lysate was centrifugated for 10 min at 13.000×g at 4° C. to pellet cell debris. Proteins present in the supernatant were quantified by the standard Bradford's method (Bio-Rad Protein Assay). The proteins were then resolved by 10% SDS-PAGE, and visualized by autoradiography.
The phosphorylated radiolabeled GST-2E11 proteins obtained from the previous assay were incubated in the presence of HTB-14 cell extracts containing the PP2A phosphatase to determine whether PP2A is capable of dephosphorylating GST-2E11 proteins. In this experiment, a protein that is dephosphorylated by PP2A is not radioactive after incubation in the presence of HTB-14 cell extracts any more. Thus dephosphorylation of the GST-2E11 protein is monitored by disappearance of the signal visualized by autoradiography. […]

GSK-3β = assay: In vitro phosphorylation assay of GST-2E11 (KCNQ2-15b fusion protein) with recombinant GSK-3β kinase and PKA; format: biochemical; settings: LiCl added to the kination mix (0, 8.3, 25, 75, 225 mM); autoradiography band at about 45 kD; read-out: LiCl concentration at which the phosphorylation state of GST-2E11 was reduced by 50%
Method: Expression and purification of the GST-2E11 fusion protein were performed as described above. Beads with bound fusion protein corresponding to 1 ml of bacterial clear lysate were washed three times in NETN and one time with HMK buffer without DTT (20 mM Tris-HCl [pH 7.5], 120 mM NaCl, 12 mM MgCl2). Beads were resuspended in 240 μl of reaction mix (24 μl of 10× HMK Buffer with 20 mM DTT, 40 units of Protein Kinase A Catalytic Subunit [PKA from bovine heart, 250 units/vial, Sigma] in 40 mM DTT, 5 μl of 24 mM ATP and 207 μl of distilled water) and incubated for 30 min at room temperature. Beads were then washed three times in NETN buffer and one time in GSK -3β reaction buffer (20 mM Tris-HCl [pH 7.5], 10 mM MgCl2, 5 mM DTT) (New England Biolabs). Beads were then resuspended in 50 μl of reaction mix (5 μl of 10× GSK-3β reaction buffer, 1 μl of [^32P]γATP 10 mCi/ml, 50 U of recombinant GSK-3β[New England Biolabs], and distilled water for a final volume of 50 μl) and incubated at room temperature for 30 min. After three washes in NETN buffer, phosphorylated proteins were boiled in 2× Sample Buffer (125 mM Tris-HCl [pH 6.8], 4% SDS, 20% glycerol, 1.4 M β-Mercapto ethanol), resolved by 10% SDS-PAGE, and visualized by autoradiography.
In this phosphorylation assay, non-radiolabeled polypeptides to be tested are incubated in the presence of GSK-3β, PKA and radioactive ATP. […]

GST recombinant protein = molecular target: T1, GST recombinant protein (UniProt P08515 1-218 = GST); assay: solid phase overlay assay: GST blotted on nitrocellulose, probed with 32P-labeled GST-PPP2R2C, autoradiography
T1 construct: Negative control in the overlay assay; also called Glutathione S-transferase; pGEX2TK plasmid product
Method: After 4.5 hr of incubation, the membrane was washed with Hyb75 buffer, 1 mM DTT, 1% (w/v) non-fat dry milk three times for 15 min at room temperature. The blots were analyzed by autoradiography.

Molecule | phosphorylation of GST-2E11 with 5 µg of CREB phosphopeptides added as competitor [1] | phosphorylation with [32P]γATP, band at about 45 kD by autoradiography [1] | further results
PP2A phosphatase in HTB-14 whole cell extracts |  |  | dephosphorylation of 32P-phosphorylated GST-2E11 (loss of the autoradiography band), with or without okadaic acid [1]: In the line loaded with GST-2E11 fusion proteins incubated in the presence of HTB-14 cell extracts, the band had an extremely weaker intensity
recombinant GSK-3β kinase (New England Biolabs) | A band did still appear at a position corresponding to the size of GST-2E11, but the intensity of the band was very significantly lower | Thus the GST-2E11 protein is phosphorylated by GSK-3β and PKA in vitro | 
C=C1[C@@H](O)[C@@H]2O[C@]3(CC[C@H](/C=C/[C@@H](C)[C@@H]4CC(C)=C[C@@]5(O[C@H](C[C@@](C)(O)C(=O)O)CC[C@H]5O)O4)O3)CC[C@H]2O[C@@H]1[C@@H](O)C[C@H](C)[C@H]1O[C@@]2(CCCCO2)CC[C@H]1C [okadaic acid] |  |  | intensity of the GST-2E11 band versus the band of phosphorylated GST-2E11 (reference) (PP2A phosphatase): only slightly weaker
Protein Kinase A Catalytic Subunit (PKA from bovine heart, Sigma) | A band did still appear at a position corresponding to the size of GST-2E11, but the intensity of the band was very significantly lower | Thus the GST-2E11 protein is phosphorylated by GSK-3β and PKA in vitro | 
[Cl-].[Li+] [LiCl] |  |  | IC50 (GSK-3β): ~50 mM
GST-PPP2R2C radiolabeled recombinant protein (other, radiolabeled with [32P]-γATP by Protein Kinase A Catalytic Subunit, Used as the soluble probe in the solid phase overlay assay; also called PP2A/Bγ; pGEX-2TK-PPP2R2C; not shown: glutathione S-transferase encoded by the pGEX-2TK vector (Amersham Pharmacia Biotech)) MGEDTDTRKINHSFLRDHSYVTEADIISTVEFNHTGELLATGDKGGRVVIFQREPESKNAPHSQGDYDVYSTFQSHEPEFDYLKSLEIEEKINKIKWLPQQNAAHSLLSTNDKTIKLWKITERDKRPEGYNLKDEEGKLKDLSTVTSLQVPVLKPMDLMVEVSPRRIFANGHTYHINSISVNSDCETYMSADDLRINLWHLAITDRSFNIVDIKPANMEDLTEVITASEFHPHHCNLFVYSSSKGSLRLCDMPAAALCDKHSKLFEEPEDPSNRSFFSEIISSVSDVKFSHSDRYMLTRDYLTVKVWDLNMEARPIETYQVHDYLRSKLCSLYENDCIFDKFECAWNGSDSVIMTGAYNNFFRMFDRNTKRDVTLEASRESSKPRAVLKPRRVCVGGKRRRDDISVDSLDFTKKILHTAWHPAENIIAIAATNNLYIFQDKVNSDMH |  |  | binding result (GST recombinant protein): no binding (tested: 100 ng, 10 ng and 0.1 ng of GST loaded)

From patent publication US20060275758A1, “Use of pp2a phosphatase modulators in the treatment of mental disorders” (priority 2002, published 2006)
